Data on one substance can be found in US8821943B2, “Methods and compositions for targeted delivery of therapeutic agents” (Board of Regents of the University of Nebraska, priority 2006, dated 2014).

For this series, the system named is ARPE-19 cells. Nature of the series: Nanoparticle uptake by human retinal pigment epithelial cells. The format is cell-based. Conditions: 1 ml of 100 μg/ml suspension in serum free medium. As for the experimental part: A study was performed to examine the effect of targeting moieties on biodegradable and non-biodegradable carrier particles and their uptake in ocular cells. The biodegradable and non-biodegradable targeted carrier particles of the preceding Example were used. Uptake of nanoparticles by human retinal pigment epithelial cells (ARPE-19 cell line) was quantified by measuring fluorescence in cell lysate obtained after incubation of targeted or untargeted (unconjugated) nanoparticles with ARPE-19 cell monolayers.
ARPE-19 cells were obtained from American Type Culture Collection (ATCC, Manassas, Va.). The cells were maintained in culture according to supplier's recommendation. All studies were conducted using confluent cells of passages 20-30. Dulbecco's modified Eagle's medium (DMEM-F/12), fetal bovine serum, penicillin-streptomycin and L-glutamine were obtained from Gibco-BRL (Invitrogen Inc., Carlsbad, Calif.). Cell culture flasks (T-75 cm^2) and plates were purchased from Corning Inc., (Corning, N.Y.). To investigate the uptake of particles, ARPE-19 cells between 20-30 passages were cultured in 24-well plates until confluency. […] Fluorescence intensity of the cell lysates was determined at an excitation and emission wavelength of 505 and 515 nm, respectively, for FluoSpheres®. […]

On to “Transferrin-AS: transferrin-aldehyde sulphate-conjugated polystyrene nanoparticles”, for which the “percentage uptake at 3 h by ARPE-19 cells” value turned out to be 12.2±0.26%.
